Eight sequences from the supplement of paper PMC12455559 can be followed below.

A short description of the series: purified protein yield per well (BCA); higher = higher soluble expression. The method in brief: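 Candidate enzymes were produced in E. coli C41(DE3) grown in 2 mL autoinduction cultures containing 100 µg/mL kanamycin, first at 37 °C for 2 h and then at 18 °C for 40 h. After cell lysis, protein was captured on Ni-charged magnetic beads and freed by SUMO protease cleavage on an OT-2 robot. Purified protein yield per well was read with the Pierce Rapid Gold BCA kit. Values under 25 ug (0.1 mg/mL) fall below the detection threshold.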
As to “MRSDMTPEPEGTVAKAGWARSQPRPATRAVMAVAAVLALLAGLLAIGQASARSAPSAASPATTQRGPDPTVGMIEATRGPFATAQVAMPTGHGFGGGMIYYPTDTSQGTWGVLAIVPGYSALFADEEAWMGPWLSSFGFVVVGVETNTRTDSDSQRAADLLAALDYLTTQSPVRTQVDPARMAVLGHSAGGAGAIEAAEQRPSLRALIGLAPGFPGQGLSMAADTVPALIIGGQNDGTVTPSYLSSLYGTLPASTQSAFAQIAGADHVYYTHPNNVEMKLIIPWLKVFVDSDTRYTQFLCPSLPDPSTISAYQPKCPYIPPGGSSSPSSSSSSSSAPPPNSAPLHAVGAAKCLDVPNSSTTAGTQLQIYTCSNGANQLITHTGSNQLTVYSSTMCLDANNKGTTNGTKVIIWPCNGQSNQQWNLNPNGTITSAASGLCLDVTGASTANGALVQLWTCNGGSNQQWHLG [TEP169]”, the “purified protein yield per well” value was less than 25 µg. As for “CTWRGPNPPPATLDAPMGPFTTTSSVVTTSPGFGDGTMYYPDTEPGPFGVVAVAPGWLASQNSLDTLGNRIASHGFVVITIDVNRPRSDGPQSRADQLLAALDQVANEAAVAGIADNTRQAVMGHSMGGGGALYASIDRPALKASIPLAPWARGADFSAVTVPTMIIGCEDDTVAPVGSHAIAFYDAIANTVPKAYAEIADASHSCVNDFNTDPLETAEVASSAVSFLKRFVDNDSRYTPFLCPIPELDPPLSDRRATCPYN [TEP148]”, the figure is less than 25 µg; as for “ENPHERGPDPTEESVTAPTGPFDTDTENVSSLVSGFGGGTIYYPTDDSEGTFGGVVVAPGYTASESSMSWYGERIASQGFVVFTIDTNTRYDQPNSRGRQMESALDYLVEDSDVDDMVDGDRLALMGHSMGGGGTLAAAEDRPELRAAIPLTPWHLSKDWSDVEVPTMIVGAENDSIASTRSHAVPLYESLDEDLDSTYLELRNATHFAPNISNTTIAKYSISWLKRFVDDDVRYEQFLCPAPDTGFGTDFSDYRDSCPHGGSV [DP041]”, less than 25 µg; as for “CATAGSTTDSAPVSAASLSVDGAYEVRTYSDFPDVPEFGAATIYYPVGVPQPIGGVAIAPGFTEEQRHISWWGPRLASHGYAVLVLDTNERRERPDARASALIAGVTLLRAEGLRQGSPLFGGIDLAKMAIMGHSMGGGGALLAANEHSDQIRAAIPFTPWEPETNLGGVSAPTLVLAGAADGIAEVDEHAWRHFSMIPESTPKVYLEIAGGDHYIADTTRGTDLATVGRYAIAWLKLYVDRDERYRDFIYGE [TEP065]”, less than 25 µg. As for “CSEEPHKAGGPWAGPYEVVTQQVSADDADGGFGDGTVRYPDDGSRDYGVIAASPGLGADESTVAPYGELLASHGFVVITIDTKTPEDSPAQRGRQLLRALDYATERSDAADRADPRRLGVLGHSMGGGGALYAAARNPHIRAAVPLTPYATRRDWHRVEAPTLVVGGSDDEVAPVSEYADAFYEGLSGAREKAYLELKGDHFVATPPDGLVSRQVVAWFGHFLAGAPGSPCPLPSGDGVTESRDTCPFGTRGR [TEP179]”, the figure is 25.7 µg. As for “IRETRVSSSVRGFGGGTIYYPTGTSGTMGAIVVIPGFVSPESSIAWWGPKLASHGFVVMTIATNRTTDQPSSRATQINAALDYLISQNSTSGSPVRNMIDTDRLGVMGWSMGGGGTLRVASQNRLKAAIPLAPYDTISFRNVDAPTLIFGCESDTVAPVRNHASPFYNQIPAGTDKAFVELNGGSHTCANGGNQYLSLIHI [ESM057]”, the figure is less than 25 µg. For “DGPYDVDWIYESDGLRNGPYYLGATLYYPINTSESLASIVIVPGWGMPESSIQNWGPFFASWGIIAMTIGTNNPYDWPEERAEALLDAIETIKQENVRSDSPVYGMVDINSFAVCGYSMGGGGAQWAATIDSYLDAVVALNPALAIYDTINCTDPEFDYYCLVPEHLNHSTPVLIITGENEDANGTSATGYNHYEYTPNATDKMFFQVSNSGHEAAYGPYGANGEVGEKSMQWLKFHLFCLEFLNIIKLQRKLKMI [TEP020]”, the “purified protein yield per well” value was less than 25 µg. The value for “GFGGGMIYYPTDTSQGTFGGIAISPGYTAQFSVELSWMGPWLASHGFVVIGIETNSPTDFDQARGTQLLAALDYLTQQSPVRTRVDASRLAVAGHSMGGGGALNAAIRRPSLKATVGITPFLPSSNLANDHVPTMLIAGQADTVVSTSSVINQYNSLPATTKSVFLEVAGGDHGFMVGRPNTVMVRTMLPFLKIFVDNDSRYSKFLCPLMDSSGITQYRST [ESM170]” was less than 25 µg.
